Several values for one entry are separate records, joined by “and”; a condition that tells them apart may be missing. Equal values may be shown once.
B1: EDA-E. coli: 2-keto-3-deoxygluconate-6-phosphate aldolase (eda) of E. coli (protein, UniProt P0A955 1-213, looked up)
KHG/KDPG aldolase: MKNWKTSAESILTTGPVVPVIVVKKLEHAVPMAKALVAGGVRVLEVTLRTECAVDAIRAIAKEVPEAIVGAGTVLNPQQLAEVTEAGAQFAISPGLTEPLLKAATEGTIPLIPGISTVSELMLGMDYGLKEFKFFPAEANGGVKALQAIAGPFSQVRFCPTGGISPANYRDYLALKSVLCIGGSWLVPADALEAGDYDRITKLAREAVEGAKL
B2: XI-R: native xylose isomerase of Ruminococcus flavefaciens strain 17, SEQ ID NO: 31 (protein, listed as Ruminococcus flavefaciens)
chain: MEFFSNIGKIQYQGPKSTDPLSFKYYNPEEVINGKTMREHLKFALSWWHTMGGDGTDMFGCGTTDKTWGQSDPAARAKAKVDAAFEIMDKLSIDYYCFHDRDLSPEYGSLKATNDQLDIVTDYIKEKQGDKFKCLWGTAKCFDHPRFMHGAGTSPSADVFAFSAAQIKKALESTVKLGGNGYVFWGGREGYETLLNTNMGLELDNMARLMKMAVEYGRSIGFKGDFYIEPKPKEPTKHQYDFDTATVLGFLRKYGLDKDFKMNIEANHATLAQHTFQHELRVARDNGVFGSIDANQGDVLLGWDTDQFPTNIYDTTMCMYEVIKAGGFTNGGLNFDAKARRGSFTPEDIFYSYIAGMDAFALGFRAALKLIEDGRIDKFVADRYASWNTGIGADIIAGKADFASLEKYALEKGEVTASLSSGRQEMLESIVNNVLFSL

What was measured:
[1] = Heterologous xylose isomerase expression in yeast (active yes/no); assay type: cell-based, Saccharomyces cerevisiae; settings: xylose isomerase of donor organism expressed in engineered yeast (S. cerevisiae)
xylose isomerase = assay: Xylose isomerase assay in the presence of xylitol (inhibition constant); assay type: biochemical; settings: chimeric variants table; inhibitor xylitol
Method: Approximately 20 μg of soluble whole cell extract from each transformed cell line, prepared using Y-PER plus reagent as described above, was incubated in a solution containing about 100 mM Tris, pH 7.5, 10 mM MgCl ? 2, 0.15 mM NADH (Sigma, St. Louis, Mo.), and 2 U Sorbitol Dehydrogenase (SDH) (Roche, Indianapolis, Ind.) at about 30° C. […] A Beckman DU-800 spectrophotometer was utilized with an Enzyme Mechanism software package (Beckman Coulter, Inc, Brea, Calif.), and the change in the A340 was monitored for 2-3 minutes.

[2] = Xylose isomerase activity assay (sorbitol dehydrogenase/NADH coupled, Kuyper et al.), soluble whole cell extract; assay type: biochemical, Saccharomyces cerevisiae
[3] = EDA activity assay with saturating amounts of E. coli expressed EDD extract; assay type: biochemical, Saccharomyces cerevisiae
Method: Grow 5 ml LB-Kan preps of BF1055 (BL21/DE3 with pET26b empty vector) and BF1706 (BL21DE3 with pET26b+E. coli EDD).
Grow 50 ml LB-Kan prep of BF1055, 2% (v/v) inoculate.
Grow 50 ml prep of BF1706 using Novagen's Overnight Express (46.45 ml LB-Kan, 1 ml solution 1, 2.5 ml solution 2, 50 μl solution 3, 5 μl of 1M MnCl2, 50 μl of 0.5 M FeCl2), 2% (v/v) inoculate.
Inoculate to OD600 of 0.2.
EDD extractions (adapted from Chemyan et al, Protein Science 16:2368-2377, 2007): • 1) Pellet cells in 50 ml conical tubes, 4° C., 3,000 rpm, 10 mins, discard supernatant. • 2) Resuspend in 2 ml degassed PDGH buffer (20 mM MES pH 6.5, 30 mM NaCl, 5 mM MnCl2, 0.5 mM FeCl2, 10 mM 2-mercaptoethanol, 10 mM cysteine, sparged with nitrogen gas). Move to hungate tube. • 3) Add 0.1% Triton X-100, 10 ng/ml DNase, 10 μg/ml PMSF, 10 μg/ml TAME (Nα-(p-toluene sulfonyl)-L-arginine methyl ester), 100 μg/ml lysozyme. • 4) Sparge hungate tube with nitrogen gas, cap and seal. Incubate 2 hours at 37° C., swirl occasionally. • 5) Clarify by centrifugation in 2-ml tube, 4° C., 10 mins, 14,000 rpm. Keep supernatant. • 6) Treat with 150 mM pyruvate and 10 mM sodium cyanoborohydride (work in hood) to inactivate aldolase activity. Incubate 30 mins at room temperature. • 7) During incubation, pre-equilibrate PD-10 column from GE • a. Remove top cap, pour off storage buffer. • b. Cut off bottom tip, fit in 50 ml conical with adapter. • c. Pour 5 ml of 20 mM MES buffer, pH 6.5 (total of 5 times). Discard flow-through. • 8) Run sample through column, then add MES buffer to a total of 2.5 ml volume added. Discard flow-through. • 9) Run 3.5 ml 20 mM MES pH 6.5 buffer to elute protein. Discard column in appropriate waste receptacle. • 10) Perform Bradford assay (1:10 or 1:20 dilution). […]
Each reaction contains 50 mM Tris-HCl, pH 7, 10 mM MgCl2, 0.15 mM NADH, 15 μg LDH, saturating amounts of EDD determined empirically (usually ˜100 μg), 1-50 μg EDA (depending on level of activity), and 1 mM 6-phosphogluconate. Reactions are started by the addition of 6-phosphogluconate and monitored for 5 mins at 30° C.

C5 strain = assay: Xylose fermentation of C5 strain transformed with xylose isomerase constructs; assay type: cell-based, Saccharomyces cerevisiae
Text: The engineered strain was designed to include the following genetic modifications: the native Pho13 gene (alkaline phosphatase specific for p-nitrophenyl phosphate) was disrupted by inserting a construct containing the native TLK1 gene (Transketolase-1); the native aldose reductase gene (Gre3) was disrupted by inserting a construct containing the native high-affinity glucose transporter-7 gene (HXT7); the native glucose-repressible alcohol dehydrogenase II gene (adh2) was disrupted by inserting a construct containing the native xylulokinase gene (XYLK); and the native orotidine-5′ phosphate decarboxylase gene (ura3) was disrupted by inserting a construct containing the native transaldolase 1 gene (TAL1). The resulting strain had the following genotype: pho13::TKL1, gre3::HXT7, adh-2::XYLK, ura3::TAL1.
The C5 strain was transformed using standard protocols with either p426GPD (as a control) or the chimeric variants XI-R, XI-Rp5, XI-Rp10, or XI-Rp15. The transformed cells were grown on SC-glucose minus uracil initially and then passaged onto SC-xylose minus uracil. Cultures of each of the above constructs were made in SC-xylose minus uracil—and grown for one week. The cultures were grown aerobically at 30° C. with 250 rpm agitation, 1 vvm sparge of process air, 21% O2. The pH was controlled at about 5.0 with 1N NaOH. […] At 24 hours elapsed fermentation time the fermentation was switched to anaerobic conditions. […] Oxygen was purged with 100% N2 sparge at 1 vvm until percent O2 was below 1%. Aeration was then set at 0.25 vvm 100% N2.
The final sample also measured biomass by dry cell weight.

[4] = system: Saccharomyces cerevisiae (strain BF903); assay: Industrial yeast strain evaluation: aerobic growth and xylose consumption in YP-xylose; assay type: cell-based; settings: 30° C., 7 days
Method: A commercially available industrial diploid strain of Saccharomyces cerevisiae (strain BF903; “Stillspirits” triple distilled yeast, Brewcraft, Albany, New Zealand; available at Hydrobrew, Oceanside, Calif.) was obtained and was made competent for transformation using known yeast cell transformation procedures. […] Transformed yeast containing each construct were grown overnight aerobically in a 15 ml culture tube on YPD media containing 2% glucose. After about 24 hours, about 25 ml of YP media containing 2% glucose and 100 μg/ml G418 was seeded with the cells at an initial OD600 of 0.5 in a 250 ml Erlenmeyer flask and grown aerobically at 30° C. The cultures were then passaged once every 7 days into fresh media, also at an initial OD600 of 0.5.
Measurements were taken of the cell optical density (OD600) to assess cell density and plated onto YPD with 100 μg/ml G418 to ensure that the plasmid was stable. […] The strains were then grown overnight in YPD (with 100 μg/ml G418) and used to inoculate about 50 ml YP-xylose (with 100 μg/ml G418) into disposable 250 ml Erlenmeyer flasks with vented caps at an initial OD600 of about 1. The cultures were allowed to grow aerobically at 30° C. at 200 rpm for 7 days.

[5] = system: Saccharomyces cerevisiae (strain BF903); assay: Industrial yeast strain evaluation: ethanol production on xylose in sealed serum bottles; assay type: cell-based; settings: strain BF903, YP plus xylose, sealed serum bottle
Method: The serum bottles were sealed with a butyl rubber stopper to prevent air exchange. As a result, the cultures became anaerobic once the available oxygen in the serum bottle was utilized. In general, anaerobiosis (e.g., the onset of anaerobic conditions) occurred a few hours after the culture was inoculated. Xylose utilization, ethanol production and cell growth were measured every twenty four hours.

Molecule	Active? (yes/no) [1]	Ki (xylose isomerase) [mM]	Specific Activity ([2]; chimeric variants table, xylose 40-500 mM, soluble whole cell extract) [µmol/min/mg]	EDA activity compared to the other EDAs, repeated experiment (FIG. 24) ([3]; 100 μg EDD and 25 μg EDA cell lysate (5 μg of E. coli EDA))	EDA activity compared to the other EDAs ([3]; first experiment)	EDA activity relative to the EDA from P. aeruginosa ([3]; first experiment, E. coli slope outside linear range)	Dry Cell Wt (C5 strain; final sample at 372 hours)	Ethanol (C5 strain; final sample at 372 hours)	Glucose (C5 strain; final sample at 372 hours) [g/L]	Xylose (C5 strain; final sample at 372 hours)	OD600 nm (C5 strain; final sample at 372 hours after commencing fermentation)	xylose consumption [4]	Specific Activity ([2]; xylose isomerase expressed in S. cerevisiae, total soluble crude extract, xylose concentrations between 40 and 500 nM (so in the source), Michaelis-Menten plot) [µmol/min/mg]	cell growth (cell density) [5]	ethanol production [5]
XI-P: xylose isomerase from Piromyces strain E2, SEQ ID NO: 35	Yes	4.79	2.02												
B1				most active of those EDA's tested	higher activity as compared to the other EDA activities	approximately 16 fold									
B2	Yes						2.20 g/L and 2.03 g/L	15.65 g/L and 15.5 g/L	0	3.14 g/L and 3.85 g/L	7.72 and 7.32	more efficient at consuming xylose	0.9605	grew to a higher cell density	produced more ethanol
